Patent US20210388087A1 (Chugai, published 2021)
Residue numbers refer to the chain shown, from its start.

B1: H183/L072 VL F55K (antibody, name in Kabat numbering, V domains shown)
VH: QVQLVESGGGLVQPGRSLRLSCAASGFTFSNAWMHWVRQAPGKGLEWVAQIKDKGNAYAAYYAPSVKGRFTISRDDSKNSIYLQMNSLKTEDTAVYYCHYVHYASASTVLPAFGVDAWGQGTTVTVSS
VL: DIVMTQSPLSLPVTPGEPASISCQASQELVHMNRNTYLHWYQQKPGQAPRLLIYKVSNRKPGVPDRFSGSGSGTDFTLKISRVEAEDVGVYYCAQGTSVPFTFGQGTKLEIK
notes: Dual-Ig
B2: H183/L072 VL F55L (antibody, name in Kabat numbering, V domains shown)
VH: B1 VH
VL: B1 VL with K60L
notes: Dual-Ig
B3: H183/L072 VL F55M (antibody, name in Kabat numbering, V domains shown)
VH: B1 VH
VL: B1 VL with K60M
notes: Dual-Ig
B4: H183/L072 VL F55N (antibody, name in Kabat numbering, V domains shown)
VH: B1 VH
VL: B1 VL with K60N
notes: Dual-Ig
B5: H183/L072 VL F55P (antibody, name in Kabat numbering, V domains shown)
VH: B1 VH
VL: B1 VL with K60P
notes: Dual-Ig
B6: H183/L072 VL F55Q (antibody, name in Kabat numbering, V domains shown)
VH: B1 VH
VL: B1 VL with K60Q
notes: Dual-Ig
B7: H183/L072 VL F55R (antibody, name in Kabat numbering, V domains shown)
VH: B1 VH
VL: B1 VL with K60R
notes: Dual-Ig
B8: H183/L072 VL F55S (antibody, name in Kabat numbering, V domains shown)
VH: B1 VH
VL: B1 VL with K60S
notes: Dual-Ig
B9: H183/L072 VL F55T (antibody, name in Kabat numbering, V domains shown)
VH: B1 VH
VL: B1 VL with K60T
notes: Dual-Ig
B10: H183/L072 VL F55V (antibody, name in Kabat numbering, V domains shown)
VH: B1 VH
VL: B1 VL with K60V
notes: Dual-Ig
B11: H183/L072 VL F55W (antibody, name in Kabat numbering, V domains shown)
VH: B1 VH
VL: B1 VL with K60W
notes: Dual-Ig
B12: H183/L072 VL F96A (antibody, name in Kabat numbering, V domains shown)
VH: B1 VH
VL: B1 VL with K60F, F101A
notes: Dual-Ig
B13: H183/L072 VL F96D (antibody, name in Kabat numbering, V domains shown)
VH: B1 VH
VL: B1 VL with K60F, F101D
notes: Dual-Ig
B14: H183/L072 VL F96E (antibody, name in Kabat numbering, V domains shown)
VH: B1 VH
VL: B1 VL with K60F, F101E
notes: Dual-Ig
B15: H183/L072 VL F96G (antibody, name in Kabat numbering, V domains shown)
VH: B1 VH
VL: B1 VL with K60F, F101G
notes: Dual-Ig
B16: H183/L072 VL F96H (antibody, name in Kabat numbering, V domains shown)
VH: B1 VH
VL: B1 VL with K60F, F101H
notes: Dual-Ig
B17: H183/L072 VL F96I (antibody, name in Kabat numbering, V domains shown)
VH: B1 VH
VL: B1 VL with K60F, F101I
notes: Dual-Ig
B18: H183/L072 VL F96K (antibody, name in Kabat numbering, V domains shown)
VH: B1 VH
VL: B1 VL with K60F, F101K
notes: Dual-Ig
B19: H183/L072 VL F96L (antibody, name in Kabat numbering, V domains shown)
VH: B1 VH
VL: B1 VL with K60F, F101L
notes: Dual-Ig
B20: H183/L072 VL F96M (antibody, name in Kabat numbering, V domains shown)
VH: B1 VH
VL: B1 VL with K60F, F101M
notes: Dual-Ig
B21: H183/L072 VL F96N (antibody, name in Kabat numbering, V domains shown)
VH: B1 VH
VL: B1 VL with K60F, F101N
notes: Dual-Ig
B22: H183/L072 VL F96P (antibody, name in Kabat numbering, V domains shown)
VH: B1 VH
VL: B1 VL with K60F, F101P
notes: Dual-Ig
B23: H183/L072 VL F96Q (antibody, name in Kabat numbering, V domains shown)
VH: B1 VH
VL: B1 VL with K60F, F101Q
notes: Dual-Ig
B24: H183/L072 VL F96R (antibody, name in Kabat numbering, V domains shown)
VH: B1 VH
VL: B1 VL with K60F, F101R
notes: Dual-Ig
B25: H183/L072 VL F96S (antibody, name in Kabat numbering, V domains shown)
VH: B1 VH
VL: B1 VL with K60F, F101S
notes: Dual-Ig
B26: H183/L072 VL F96T (antibody, name in Kabat numbering, V domains shown)
VH: B1 VH
VL: B1 VL with K60F, F101T
notes: Dual-Ig
B27: H183/L072 VL F96V (antibody, name in Kabat numbering, V domains shown)
VH: B1 VH
VL: B1 VL with K60F, F101V
notes: Dual-Ig
B28: H183/L072 VL F96W (antibody, name in Kabat numbering, V domains shown)
VH: B1 VH
VL: B1 VL with K60F, F101W
notes: Dual-Ig
B29: H183/L072 VL G91A (antibody, name in Kabat numbering, V domains shown)
VH: B1 VH
VL: B1 VL with K60F, G96A
notes: Dual-Ig
B30: H183/L072 VL G91D (antibody, name in Kabat numbering, V domains shown)
VH: B1 VH
VL: B1 VL with K60F, G96D
notes: Dual-Ig
B31: H183/L072 VL G91E (antibody, name in Kabat numbering, V domains shown)
VH: B1 VH
VL: B1 VL with K60F, G96E
notes: Dual-Ig
B32: H183/L072 VL G91F (antibody, name in Kabat numbering, V domains shown)
VH: B1 VH
VL: B1 VL with K60F, G96F
notes: Dual-Ig
B33: H183/L072 VL G91H (antibody, name in Kabat numbering, V domains shown)
VH: B1 VH
VL: B1 VL with K60F, G96H
notes: Dual-Ig
B34: H183/L072 VL G91I (antibody, name in Kabat numbering, V domains shown)
VH: B1 VH
VL: B1 VL with K60F, G96I
notes: Dual-Ig
B35: H183/L072 VL G91K (antibody, name in Kabat numbering, V domains shown)
VH: B1 VH
VL: B1 VL with K60F, G96K
notes: Dual-Ig
B36: H183/L072 VL G91L (antibody, name in Kabat numbering, V domains shown)
VH: B1 VH
VL: B1 VL with K60F, G96L
notes: Dual-Ig
B37: H183/L072 VL G91M (antibody, name in Kabat numbering, V domains shown)
VH: B1 VH
VL: B1 VL with K60F, G96M
notes: Dual-Ig
B38: H183/L072 VL G91N (antibody, name in Kabat numbering, V domains shown)
VH: B1 VH
VL: B1 VL with K60F, G96N
notes: Dual-Ig
B39: H183/L072 VL G91P (antibody, name in Kabat numbering, V domains shown)
VH: B1 VH
VL: B1 VL with K60F, G96P
notes: Dual-Ig
B40: H183/L072 VL G91Q (antibody, name in Kabat numbering, V domains shown)
VH: B1 VH
VL: B1 VL with K60F, G96Q
notes: Dual-Ig
B41: H183/L072 VL G91R (antibody, name in Kabat numbering, V domains shown)
VH: B1 VH
VL: B1 VL with K60F, G96R
notes: Dual-Ig
B42: H183/L072 VL G91S (antibody, name in Kabat numbering, V domains shown)
VH: B1 VH
VL: B1 VL with K60F, G96S
notes: Dual-Ig
B43: H183/L072 VL G91T (antibody, name in Kabat numbering, V domains shown)
VH: B1 VH
VL: B1 VL with K60F, G96T
notes: Dual-Ig
B44: H183/L072 VL G91V (antibody, name in Kabat numbering, V domains shown)
VH: B1 VH
VL: B1 VL with K60F, G96V
notes: Dual-Ig
B45: H183/L072 VL G91W (antibody, name in Kabat numbering, V domains shown)
VH: B1 VH
VL: B1 VL with K60F, G96W
notes: Dual-Ig
B46: H183/L072 VL H27dA (antibody, name in Kabat numbering, V domains shown)
VH: B1 VH
VL: B1 VL with H31A, K60F
notes: Dual-Ig

What follows are binders tested against T1, Human CD137 ECD (human) (assay: Biacore SPR, vs parent H183/L072).
T1 construct: entry includes C-terminal His-tag and biotin acceptor peptide; also called human CD137 extracellular domain; 4-1BB
T1 sequence (chain, as listed by the source limits assumed): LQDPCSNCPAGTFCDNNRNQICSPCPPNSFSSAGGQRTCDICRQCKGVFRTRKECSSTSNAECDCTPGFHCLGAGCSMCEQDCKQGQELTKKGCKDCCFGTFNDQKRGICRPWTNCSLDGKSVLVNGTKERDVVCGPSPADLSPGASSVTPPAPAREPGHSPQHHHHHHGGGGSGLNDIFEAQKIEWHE

Row | Binder | fold change of affinity [fold]
1 | B1 | 0
2 | B2 | 0.2
3 | B3 | 0.2
4 | B4 | 0
5 | B5 | 0
6 | B6 | 0
7 | B7 | 0
8 | B8 | 0
9 | B9 | 0
10 | B10 | 0
11 | B11 | 0.2
12 | B12 | 0
13 | B13 | 0
14 | B14 | 0
15 | B15 | 0
16 | B16 | 0
17 | B17 | 0
18 | B18 | 0
19 | B19 | 0
20 | B20 | 0
21 | B21 | 0
22 | B22 | 0
23 | B23 | 0

Row | Binder | fold change of affinity [fold]
24 | B24 | 0
25 | B25 | 0
26 | B26 | 0
27 | B27 | 0
28 | B28 | 0
29 | B29 | 0.4
30 | B30 | 0
31 | B31 | 0
32 | B32 | 0
33 | B33 | 0
34 | B34 | 0
35 | B35 | 0
36 | B36 | 0
37 | B37 | 0
38 | B38 | 0
39 | B39 | 0
40 | B40 | 0
41 | B41 | 0
42 | B42 | 0
43 | B43 | 0
44 | B44 | 0
45 | B45 | 0
46 | B46 | 0.7
